Test in all cases: positional peptide library pulldown on immobilised Nb, LC-MS of supernatant; signal ratio to control GFP-Nb (1 = not captured, near 0 = captured)
One experiment addresses T1, BC2T A6H.
T1 construct: positional scanning library member
T1 peptide: Ac-PDRKAHVSHWQQ-NH2
In a few lines:
(§1)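 Unbound peptide left in supernatant after 1 h pulldown in PBS/0.01% CHAPS measured by reversed-phase LC-MS (8–30% eluent B gradient, 20 min).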

The target of the next experiment is T2, BC2T A6K.
T2 construct: positional scanning library member
T2 peptide: Ac-PDRKAKVSHWQQ-NH2
In a few lines: as §1

The next experiment concerns the target T3, BC2T V7R.
T3 construct: positional scanning library member
T3 peptide: Ac-PDRKAARSHWQQ-NH2
The gist of the method:
as §1

In the next experiment the target is T4, BC2T K4E.
T4 construct: positional scanning library member
T4 peptide: Ac-PDREAAVSHWQQ-NH2
The gist of the method:
as §1

The next experiment deals with T5, BC2T P1F.
T5 construct: positional scanning library member
T5 peptide: Ac-FDRKAAVSHWQQ-NH2
The gist of the method: as §1

For another experiment, the target named is T6, BC2T V7P.
T6 construct: positional scanning library member
T6 peptide: Ac-PDRKAAPSHWQQ-NH2
The gist of the method:
as §1

A further experiment addresses T7, BC2T R3K.
T7 construct: positional scanning library member
T7 peptide: Ac-PDKKAAVSHWQQ-NH2
In a few lines: as §1

For the next experiment, the target named is T8, BC2T P1W.
T8 construct: positional scanning library member
T8 peptide: Ac-WDRKAAVSHWQQ-NH2
In a few lines:
as §1

Another experiment addresses T9, BC2T R3T.
T9 construct: positional scanning library member
T9 peptide: Ac-PDTKAAVSHWQQ-NH2
The gist of the method:
as §1

A further experiment concerns the target T10, BC2T A6Q.
T10 construct: positional scanning library member
T10 peptide: Ac-PDRKAQVSHWQQ-NH2
In a few lines:
as §1

For a further experiment, the target named is T11, BC2T P1K.
T11 construct: positional scanning library member
T11 peptide: Ac-KDRKAAVSHWQQ-NH2
The gist of the method:
as §1

The next experiment concerns the target T12, BC2T A6D.
T12 construct: positional scanning library member
T12 peptide: Ac-PDRKADVSHWQQ-NH2
In a few lines:
as §1

In the next experiment the target is T13, BC2T K4C(Abu) (not fully specified (residue 4)).
T13 construct: positional scanning library member
T13 peptide: Ac-PDRCAAVSHWQQ-NH2
The gist of the method:
as §1

The target of a further experiment is T14, BC2T A5R.
T14 construct: positional scanning library member
T14 peptide: Ac-PDRKRAVSHWQQ-NH2
The gist of the method: as §1

For the next experiment, the target named is T15, BC2T A5Q.
T15 construct: positional scanning library member
T15 peptide: Ac-PDRKQAVSHWQQ-NH2
In a few lines:
as §1

In another experiment the target is T16, BC2T H9D.
T16 construct: positional scanning library member
T16 peptide: Ac-PDRKAAVSDWQQ-NH2
In a few lines:
as §1

Another experiment addresses T17, BC2T Q11D.
T17 construct: positional scanning library member
T17 peptide: Ac-PDRKAAVSHWDQ-NH2
The gist of the method:
as §1

The target in the next experiment is T18, BC2T Q11E.
T18 construct: positional scanning library member
T18 peptide: Ac-PDRKAAVSHWEQ-NH2
In a few lines: as §1

A further experiment addresses T19, BC2T W10D.
T19 construct: positional scanning library member
T19 peptide: Ac-PDRKAAVSHDQQ-NH2
The gist of the method:
as §1

Another experiment addresses T20, BC2T W10E.
T20 construct: positional scanning library member
T20 peptide: Ac-PDRKAAVSHEQQ-NH2
In a few lines:
as §1

The target of a further experiment is T21, BC2T S8K.
T21 construct: positional scanning library member
T21 peptide: Ac-PDRKAAVKHWQQ-NH2
The gist of the method: as §1

B1: BC2-NbR106E (VHH)
VHH: QVQLVESGGGLVQPGGSLTLSCTASGFTLDHYDIGWFRQAPGKEREGVSCINNSDDDTYYADSVKGRFTIFMDNAKDTVYLQMNSLKPEDTAIYYCAEARGCKRGEYEYDFWGQGTQVTVSS
notes: headlock mutant of BC2-Nb; immobilised on beads in this assay
B1: the ratio is 1 with BC2T A6H; 0.9 with BC2T A6K; 0.1 in the experiment with BC2T V7R; 0.9 in the experiment with BC2T K4E; 0.3 with BC2T P1F; 0.9 with BC2T V7P. The ratio with BC2T R3K was determined as 0.3; in the experiment with BC2T P1W, 0.2; with BC2T R3T it was 0.6; with BC2T A6Q it was 1; in the experiment with BC2T P1K, 0.3; with BC2T A6D, 1. The values for the ratio with BC2T K4C(Abu), in the experiment with BC2T A5R and with BC2T A5Q were 0.2, 0 and 0.2, respectively.

B2: BC2 nanobody (VHH)
VHH: QVQLVESGGGLVQPGGSLTLSCTASGFTLDHYDIGWFRQAPGKEREGVSCINNSDDDTYYADSVKGRFTIFMDNAKDTVYLQMNSLKPEDTAIYYCAEARGCKRGRYEYDFWGQGTQVTVSS
notes: immobilised on beads in this assay; also called BC2-Nb; BC2 nanotrap (immobilised)
For the molecule B2, the ratio with BC2T H9D worked out at 0.1; with BC2T Q11D, 0.2; with BC2T Q11E, 0.1; in the experiment with BC2T W10D it was 1; with BC2T W10E it was 1.1.

B3: BC2-NbR106S (VHH)
VHH: QVQLVESGGGLVQPGGSLTLSCTASGFTLDHYDIGWFRQAPGKEREGVSCINNSDDDTYYADSVKGRFTIFMDNAKDTVYLQMNSLKPEDTAIYYCAEARGCKRGSYEYDFWGQGTQVTVSS
notes: as for B1
With B3, in the experiment with BC2T S8K, the ratio stood at 0.9.

Source of the values: US20170137467A1 (CHROMOTEK, published 2017).
